Here are results for two substances from patent US20220073608A1.

The target of experiment [1] is monkey SEMA4D, full length, on CHO-K1 cells (CHO-K1 cSEMA4D) (monkey). Kind of experiment: FACS, CHO-K1 cSEMA4D cells; Ab 0.000853 nM. (In general: A flow cytometer gives signals particle by particle.)
Experiment [2] has as its target mouse SEMA4D, full length, on CHO-K1 cells (CHO-K1 mSEMA4D) (mouse) (UniProt O09126). Kind of experiment: FACS, CHO-K1 mSEMA4D cells; Ab 2.67 nM.
Experiment [3] has the same target. The experiment can be described thus: FACS, CHO-K1 mSEMA4D cells; Ab 0.107 nM.
The target in experiment [4] is T1, biotinylated hSEMA4D ECD-His (human) (UniProt Q92854).
T1 sequence (chain, biotinylated with Biotin-X-X-NHS at a molar ratio of 8,1; sites not stated): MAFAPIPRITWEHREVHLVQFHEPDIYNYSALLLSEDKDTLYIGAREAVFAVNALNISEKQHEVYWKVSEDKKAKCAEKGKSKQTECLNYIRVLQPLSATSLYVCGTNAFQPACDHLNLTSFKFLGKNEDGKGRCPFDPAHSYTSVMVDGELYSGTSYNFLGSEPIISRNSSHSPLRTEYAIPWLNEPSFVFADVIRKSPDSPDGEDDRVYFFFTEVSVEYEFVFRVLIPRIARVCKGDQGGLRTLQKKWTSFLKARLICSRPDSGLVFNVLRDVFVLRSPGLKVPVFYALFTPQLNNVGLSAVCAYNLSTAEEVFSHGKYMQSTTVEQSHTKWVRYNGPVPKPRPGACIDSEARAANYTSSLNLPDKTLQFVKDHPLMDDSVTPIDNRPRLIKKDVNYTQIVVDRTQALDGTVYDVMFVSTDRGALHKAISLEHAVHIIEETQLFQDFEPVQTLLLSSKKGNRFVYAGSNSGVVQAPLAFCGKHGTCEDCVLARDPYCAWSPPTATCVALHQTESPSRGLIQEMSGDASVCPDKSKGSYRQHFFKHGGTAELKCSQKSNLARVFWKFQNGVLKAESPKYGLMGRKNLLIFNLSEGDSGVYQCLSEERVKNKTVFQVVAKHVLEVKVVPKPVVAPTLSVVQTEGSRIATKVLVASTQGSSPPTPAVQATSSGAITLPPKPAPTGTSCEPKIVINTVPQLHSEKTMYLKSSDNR
Kind of experiment: FACS, blocking of biotinylated hSEMA4D ECD-His binding to 293F hPlexin B1 cells; Ab 2.67 nM.

Experiment [5] deals with T1, biotinylated hSEMA4D ECD-His (human). Kind of experiment: FACS, blocking of biotinylated hSEMA4D ECD-His binding to 293F hPlexin B1 cells; Ab 13.3 nM.
For experiment [6] the target is unchanged. Kind of experiment: FACS, blocking of biotinylated hSEMA4D ECD-His binding to 293F hPlexin B1 cells; Ab 0.0213 nM.
For experiment [7] the target is unchanged. Kind of experiment: FACS, blocking of biotinylated hSEMA4D ECD-His binding to 293F hPlexin B1 cells; Ab 0.534 nM.
For experiment [8] the target is unchanged. The experiment can be described thus: FACS, blocking of biotinylated hSEMA4D ECD-His binding to 293F hPlexin B1 cells; Ab 0.107 nM.
The target in experiment [9] is T2, human SEMA4D, full length, on CHO-K1 cells (CHO-K1 hSEMA4D) (human) (UniProt Q92854).
T2 sequence (looked up): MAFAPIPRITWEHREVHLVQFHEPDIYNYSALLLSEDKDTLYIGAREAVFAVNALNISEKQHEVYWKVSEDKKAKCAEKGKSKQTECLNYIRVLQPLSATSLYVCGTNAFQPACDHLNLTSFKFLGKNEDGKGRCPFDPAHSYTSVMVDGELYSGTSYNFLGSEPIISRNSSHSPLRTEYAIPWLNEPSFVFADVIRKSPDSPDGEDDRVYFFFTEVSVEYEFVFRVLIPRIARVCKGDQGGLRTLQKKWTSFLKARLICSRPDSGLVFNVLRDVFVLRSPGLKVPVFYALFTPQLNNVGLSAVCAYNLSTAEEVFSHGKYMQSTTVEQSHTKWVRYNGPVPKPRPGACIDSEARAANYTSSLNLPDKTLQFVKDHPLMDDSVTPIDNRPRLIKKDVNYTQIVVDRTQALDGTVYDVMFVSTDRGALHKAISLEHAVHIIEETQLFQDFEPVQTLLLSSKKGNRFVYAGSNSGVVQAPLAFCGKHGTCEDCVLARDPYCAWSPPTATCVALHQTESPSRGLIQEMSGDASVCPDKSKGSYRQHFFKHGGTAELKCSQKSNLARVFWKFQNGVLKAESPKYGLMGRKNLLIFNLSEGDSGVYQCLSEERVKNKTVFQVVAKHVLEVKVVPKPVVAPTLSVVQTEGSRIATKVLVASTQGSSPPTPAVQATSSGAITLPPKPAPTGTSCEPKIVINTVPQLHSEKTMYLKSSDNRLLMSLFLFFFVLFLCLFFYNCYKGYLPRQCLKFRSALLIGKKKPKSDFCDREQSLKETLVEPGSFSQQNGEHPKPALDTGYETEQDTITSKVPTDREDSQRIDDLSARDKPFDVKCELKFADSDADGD
Kind of experiment: FACS, CHO-K1 hSEMA4D cells; Ab 13.3 nM.

Experiment [10] deals with monkey SEMA4D, full length, on CHO-K1 cells (CHO-K1 cSEMA4D) (monkey). Kind of experiment: FACS, CHO-K1 cSEMA4D cells; Ab 0.107 nM.
Experiment [11] deals with mouse SEMA4D, full length, on CHO-K1 cells (CHO-K1 mSEMA4D) (mouse) (UniProt O09126). The experiment can be described thus: FACS, CHO-K1 mSEMA4D cells; Ab 13.3 nM.
In experiment [12] the target is T1, biotinylated hSEMA4D ECD-His (human). Kind of experiment: FACS, blocking of biotinylated hSEMA4D ECD-His binding to 293F hPlexin B1 cells; Ab 0.00427 nM.
Experiment [13] addresses T2, human SEMA4D, full length, on CHO-K1 cells (CHO-K1 hSEMA4D) (human). The experiment can be described thus: FACS, CHO-K1 hSEMA4D cells; Ab 0.00427 nM.
Experiment [14] concerns the target monkey SEMA4D, full length, on CHO-K1 cells (CHO-K1 cSEMA4D) (monkey). Kind of experiment: FACS, CHO-K1 cSEMA4D cells; Ab 0.00427 nM.
In experiment [15] the target is T1, biotinylated hSEMA4D ECD-His (human). The experiment can be described thus: FACS, blocking of biotinylated hSEMA4D ECD-His binding to 293F hPlexin B1 cells; Ab 333 nM.

Take Human IgG control (antibody): the MFI in experiment [1] is 31.6; in experiment [2], 23.9; in [3], 24.1; in experiment [9], 35.8; in [10], 31.6; in experiment [11], 23.8. In addition, the results for the MFI in experiment [13] and in experiment [14] were 37.4 and 31.6, respectively. Further, the MFI (residual ligand binding) was determined as 338 in experiment [4]; 331 in experiment [5]; 359 in experiment [6]; 341 in [7]; 364 in experiment [8]; 378 in experiment [12]. The substance further displayed an MFI (residual ligand binding) in [15] of 307.

Mouse IgG control (antibody): the MFI in [1] amounted to 22.9; in experiment [2], 30.4; in experiment [3] it was 29.8; in experiment [9], 40.2; in [10] it was 25.4; in [11], 30.3. The MFI stood at 35.5 in experiment [13] and 22.5 in experiment [14]. For the same substance, the MFI (residual ligand binding) was found to be 470 in experiment [4]; 474 in experiment [5]; 468 in [6]; 472 in experiment [7]; 473 in [8]; 486 in [12]. In experiment [15], this substance displayed an MFI (residual ligand binding) of 464.
